Reference: publication PMC6071512

Target: His6-RumM (ruminococcin-A lanthionine synthetase RumM) (Ruminococcus gnavus E1) (UniProt P83674)

“His6-GFP-TEV-preRumA* (GFP fusion of the precursor peptide preRumA with Gly-1 replaced by Arg), co-expressed with RumM (from UniProt P83674 24-47)” was tested, and the fraction of His6-GFP-TEV-preRumA* complexed with His6-RumM that TEV protease digested (the free construct was completely digested), SDS-PAGE was 50%.
